This is an account of results in publication PMC12232663, “Molecular contacts in self-assembling clusters of membrane proteins” (Proceedings of the National Academy of Sciences of the …, 2025).

Usually stoichiometry N stands for the number of molecules, sites or subunits per partner or assembly.

This data set concerns the molecule itself. In words: cryo-EM structure; single-particle reconstruction of purified channel reconstituted into POPC vesicles (protein:lipid 1:20, 10 mM Tris pH 8.0, 150 mM KCl); C4-symmetric map; monomers to tetramer.

B1: Human HCN1 with a C-terminal truncation (residues 636 to 865) (natural protein, UniProt O60741 1-890, looked up)
chain: MEGGGKPNSSSNSRDDGNSVFPAKASATGAGPAAAEKRLGTPPGGGGAGAKEHGNSVCFKVDGGGGGGGGGGGGEEPAGGFEDAEGPRRQYGFMQRQFTSMLQPGVNKFSLRMFGSQKAVEKEQERVKTAGFWIIHPYSDFRFYWDLIMLIMMVGNLVIIPVGITFFTEQTTTPWIIFNVASDTVFLLDLIMNFRTGTVNEDSSEIILDPKVIKMNYLKSWFVVDFISSIPVDYIFLIVEKGMDSEVYKTARALRIVRFTKILSLLRLLRLSRLIRYIHQWEEIFHMTYDLASAVVRIFNLIGMMLLLCHWDGCLQFLVPLLQDFPPDCWVSLNEMVNDSWGKQYSYALFKAMSHMLCIGYGAQAPVSMSDLWITMLSMIVGATCYAMFVGHATALIQSLDSSRRQYQEKYKQVEQYMSFHKLPADMRQKIHDYYEHRYQGKIFDEENILNELNDPLREEIVNFNCRKLVATMPLFANADPNFVTAMLSKLRFEVFQPGDYIIREGAVGKKMYFIQHGVAGVITKSSKEMKLTDGSYFGEICLLTKGRRTASVRADTYCRLYSLSVDNFNEVLEEYPMMRRAFETVAIDRLDRIGKKNSILLQKFQKDLNTGVFNNQENEILKQIVKHDREMVQAALPRESSSVLNTDPDAEKPRFASNL
notes: source: HEK293S GnTI- cells (BacMam), purified (GFP-nanobody resin, SEC in LMNG:CHS), reconstituted into POPC vesicles
Take B1: the “stoichiometry N” value came to 4.
